# From publication PMC8358021 (2021)
# T1: AbApeO-AbApeC heterodimer (ketosynthase-chain length factor complex of the aryl polyene biosynthesis gene … (Acinetobacter baumannii))
# T1 chain 1: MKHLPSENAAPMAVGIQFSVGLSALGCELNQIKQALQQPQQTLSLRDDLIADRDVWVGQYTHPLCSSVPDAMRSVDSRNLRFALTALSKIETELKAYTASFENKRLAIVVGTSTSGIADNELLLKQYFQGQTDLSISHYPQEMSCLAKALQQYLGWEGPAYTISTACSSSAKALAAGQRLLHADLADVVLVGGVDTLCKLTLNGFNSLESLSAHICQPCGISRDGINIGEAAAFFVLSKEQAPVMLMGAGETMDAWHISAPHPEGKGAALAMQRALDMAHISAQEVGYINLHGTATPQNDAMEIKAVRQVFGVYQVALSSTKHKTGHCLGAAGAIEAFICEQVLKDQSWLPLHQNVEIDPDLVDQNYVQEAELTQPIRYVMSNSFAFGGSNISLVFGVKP
# T1 chain 2: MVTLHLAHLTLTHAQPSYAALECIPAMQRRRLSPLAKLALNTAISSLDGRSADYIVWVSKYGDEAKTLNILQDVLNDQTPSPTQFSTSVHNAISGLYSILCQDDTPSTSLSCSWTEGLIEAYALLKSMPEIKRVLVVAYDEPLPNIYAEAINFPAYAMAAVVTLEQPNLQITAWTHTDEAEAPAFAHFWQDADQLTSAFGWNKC
# B1: holo ACP2 (ApeF), acyl carrier protein 2 of the A. baumannii APE gene cluster (natural protein)
# chain: MSNLADELKQMIIDVLALEDITIADIDTEAPLFGEGLGLDSIDALELGLALKKRYNIHLNAESDETKQHFKSIQSLVALVEAQQKS
# modifications: 4'-phosphopantetheine (holo form)
# Target: T1, AbApeO-AbApeC heterodimer …
# Assay: ITC
binder,measurement,value
B1,Kd,42.7 µM
